In test [1] the target is T1, dGAE (tau 297-391) (human, UniProt P10636 614-708).
T1 construct: monomer; also called dGAE95
Briefly: direct ELISA. Background: In an ELISA, binding on a coated surface is turned into a signal by an enzyme label.

Test [2] deals with T2, tau fragment 369-390 (human).
T2 peptide: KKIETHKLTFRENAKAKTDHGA
Briefly: direct ELISA.

Test [3] deals with T2, tau fragment 369-390. Put plainly: direct ELISA.
Test [4] addresses T3, tau fragment 369-391 (human).
T3 peptide: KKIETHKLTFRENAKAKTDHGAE
Briefly: ELISA. The procedure:
(§1) A series of binding ELISA was performed using various truncated versions of the tau protein and 13mer peptide libraries spanning the entire hT40 molecule for mapping the epitopes of anti-tau scAbs (Full list of protein antigens used is given in Table 14). In general, ELISA plates were coated with 1 μg/ml hT40 or dGA or dGAE or other truncated versions of the protein and in the case of biotinylated peptides, plates were coated with 5 μg/ml Streptavidin followed by 1 μg/ml biotinylated peptide. The plates were blocked with 2% MPBS and scAb samples added at desired starting concentrations and double diluted across the plate. Binding was detected using anti-Human C Kappa HRP conjugated secondary antibody and the resulting immunoreaction was developed and absorbance values measured as described above.

Test [5] has as its target T4, full length human tau protein 2N4R (hT40) (human, UniProt P10636 1-758).
T4 construct: recombinant; also called T441
Briefly: Biacore. The procedure:
(§2) The capture antibody was diluted 1/100 in 10 mM Sodium acetate buffer pH 5.0 and passed over the activated chip surface for a period of at least 420 s. Final ligand immobilisation levels over 12,000 RU were deemed to be satisfactory.
(§3) The scAb to be tested was added only to flow cell 2 so that flow cell 1 could act as a control to subtract any interaction with the analyte and the chip surface. […] The multi-cycle protocol was as follows-Three start-up cycles composed of an initial capture, to the desired level, of the scAb to be tested was performed followed by a 30 s injection of glycine buffer pH 2.0 after each cycle to regenerate the chip surface. […] The target was added for a 120 s association period and 420 s dissociation period followed by another regeneration, 30 s injection of glycine buffer pH 2.0 in between each cycle.
(§4) The single cycle kinetics protocol was similar and utilised the same level of scAb capture. […] In single cycle kinetics the regeneration step was performed only after the final analyte concentration was added. Binding responses were analysed in Biacore X100 evaluation software and data fitted to a 1:1 binding model to obtain kinetic and affinity characterisation.
(In SPR one partner is held on a chip, and binding of the other changes the refractive index at the surface.)

Test [6] has as its target T4, full length human tau protein 2N4R …. Briefly: sandwich ELISA, S1D12 mAb capture, scAb detection. The procedure:
Full length tau (hT40), at 1 μg/ml starting concentration was added to designated wells and double diluted across rest of the plates and left to incubate at R/T for 1 h. A series of detection scAbs with varying epitope recognition properties were added at 10 μg/ml to designated wells (FIG. 22). For colourimetric detection HRP conjugated anti-HuCk secondary antibody was used and the resulting immunoreaction was developed and absorbance at 450 nm measured as described previously. Cut-off point for a positive binding event was an absorbance value of 0.3 following background subtraction. In order to enhance the assay sensitivity, a chemiluminescent detection method was adopted where 50 μL SuperSignal ELISA Femto Substrate (Thermo Scientific) was added to each well following incubation with anti-HuCK HRP antibody and subsequent washing. The luminescence was read using Clariostar Plus microplate reader. A further modification to this protocol was done where various detection scAbs were directly conjugated with HRP and detected using chemiluminescent protocol as before.

The target of test [7] is T1, dGAE (tau 297-391). Put plainly: direct ELISA. This is another data set of the same source.
Test [8] addresses T3, tau fragment 369-391. Put plainly: direct ELISA.
Test [9] deals with T4, full length human tau protein 2N4R …. Briefly: hT40 ELISA.
Test [10] has the same target. Put plainly: SPR, hT40 immobilised, mAb analyte. The procedure:
For anti-tau mAb SPR measurements, htau40 was conjugated to the surface of a CM5 sensor chip using amine coupling as explained previously. Briefly, 2 μg/mL htau40 in 10 mM Sodium acetate buffer (pH 4.0) was passed over the activated chip surface (EDC/NHS) in flow cell 2 for a period for 45 s followed by blocking with 1 M ethanolamine-HCl PH 8.5. Flow cell 1 was set up as reference control and blocked simultaneously. Final immobilisation level of htau40 (Rmax) was approximately 250 RU. […] The mAb was added for a 120 s association period and 600 s dissociation period followed by a regeneration cycle of 30 s injection of glycine buffer pH 1.5 in between each cycle. Binding responses were analysed in Biacore X100 evaluation software and data fitted to a 1:1 binding model to obtain kinetic and affinity characterisation.

The target of the next test is T5, mouse tau (mouse, UniProt P10637 2-733).
T5 construct: endogenous protein of mouse brain or plasma; also called endogenous mouse tau
T5 sequence (P10637 other isoform, or with tags, fused parts or gaps limits assumed): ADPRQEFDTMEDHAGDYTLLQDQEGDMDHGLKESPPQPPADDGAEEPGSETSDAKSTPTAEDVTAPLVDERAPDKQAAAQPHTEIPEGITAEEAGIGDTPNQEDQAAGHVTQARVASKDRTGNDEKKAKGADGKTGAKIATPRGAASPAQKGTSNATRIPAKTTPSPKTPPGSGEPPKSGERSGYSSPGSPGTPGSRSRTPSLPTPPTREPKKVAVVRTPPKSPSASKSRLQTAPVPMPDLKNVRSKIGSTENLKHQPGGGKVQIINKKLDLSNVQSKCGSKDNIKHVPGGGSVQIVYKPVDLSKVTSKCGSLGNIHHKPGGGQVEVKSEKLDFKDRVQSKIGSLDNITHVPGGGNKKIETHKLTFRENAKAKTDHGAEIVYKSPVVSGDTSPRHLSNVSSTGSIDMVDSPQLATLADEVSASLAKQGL
Briefly: Western blot of brain homogenates. A general note: A western blot detects proteins with antibodies after separation by electrophoresis.

Test [11] deals with T6, human tau fragment 296-390 of Line 1 mice (human, UniProt P10636 613-707).
T6 construct: also called L1 fragment; 10-kDa tau fragment
Briefly: Western blot of brain homogenates.

Test [12] concerns the target T7, human tau (hT40) with P301S and G335D of Line 66 mice (human, UniProt P10636 1-758).
T7 construct: transgene product in brain homogenate or plasma; also called L66 human tau
Briefly: Western blot.

Test [13] has as its target T8, aggregated dGAE (human, UniProt P10636 614-708, limits assumed).
T8 construct: dGAE aggregated in vitro with DTT, 700 rpm, 37 C, 24 h; also called dGAE aggregates; dGAE agg
Briefly: capture ELISA, mAb coated at 1 µg/ml, S1G2 scAb detection.

Test [14] addresses T8, aggregated dGAE. Briefly: capture ELISA, mAb coated at 1 µg/ml, aggregates titrated, S1G2 scAb detection.
The target in test [15] is T4, full length human tau protein 2N4R …. Briefly: SPR, scAb captured, tau analyte. Here is the method:
as §2, §3, §4

Another test has as its target T9, tau peptide 145-157 (human).
T9 peptide: ADGKTKIATPRGA
Briefly: ELISA. The procedure: as §1

Changes are numbered by the printed parent chain. Like-named read-outs stand apart in the source and are kept apart here.

T4 sequence (P10636 other isoform, or with tags, fused parts or gaps limits assumed): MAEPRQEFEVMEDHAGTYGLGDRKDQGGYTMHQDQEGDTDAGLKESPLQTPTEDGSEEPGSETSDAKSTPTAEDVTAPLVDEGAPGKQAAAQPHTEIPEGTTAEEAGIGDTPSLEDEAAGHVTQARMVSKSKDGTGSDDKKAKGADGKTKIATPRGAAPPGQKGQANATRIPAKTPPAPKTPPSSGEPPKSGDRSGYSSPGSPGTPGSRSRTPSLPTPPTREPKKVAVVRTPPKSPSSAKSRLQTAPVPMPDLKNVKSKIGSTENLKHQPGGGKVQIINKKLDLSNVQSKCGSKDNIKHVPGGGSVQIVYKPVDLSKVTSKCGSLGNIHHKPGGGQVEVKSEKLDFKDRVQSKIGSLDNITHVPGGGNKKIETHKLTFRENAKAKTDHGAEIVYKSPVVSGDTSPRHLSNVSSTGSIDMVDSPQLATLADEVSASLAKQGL
T7 sequence (P10636 other isoform, or with tags, fused parts or gaps P301S G335D P301S G335D limits assumed): as the sequence (P10636 other isoform, or with tags, fused parts or gaps limits assumed) above, with P301S, G335D counted along it

B1: S2C6 scAb (scFv, not shown: small tags and cut ends)
scFv: QVQLQESGPSLVKPSQTLSLTCTVSGFSLISNSVGWVRQAPGKAPEWVAGIDTDGEEGYNPALKSQYAASDPDTSKSQVSLSLSSVTSEDTAVYYCGRTYRTDGFAYGYVQAIDYWGPGLLLTISSEGKSSGASGESKVDDQAVLTQPSSVSGSLGQRVSITCSGSFIGISSVGWFQQLPGSGLRTIIVASDGRPSGVPDRFSMSKSGNTATLTISSLQAEDEADYFCGSSDRTQYTGVFGSGTRLTVLG
notes: scAb
As usually defined, the EC50 (read off the curve) is the concentration at which the effect is half-maximal. A lower EC50 (read off the curve) goes with higher potency in that assay. Take B1: the “EC50 (read off the curve)” value with dGAE (tau 297-391) [1] is approximately 0.8 µg/mL; in the test with tau fragment 369-390 [2], approximately 2 µg/mL.

B2: S1G10 scAb (scFv, not shown: small tags and cut ends)
scFv: QVQLQESGPSLVKPSQTLSLTCTVSGFSLTSNSVGWVRQAPGKAPEWVAGIDTDGEEGYNPALNSRLSITRDTSKSQVSLSLSSVTSEDTAVYYCGRSYRADGLAYGYVQAIDYWGPGLLVTVSSEGKSSGASGESKVDDQAVLTQPSSMSGSLGQRVSITCSGSFIGISSVGWFQQLPGSGLRTIIVASDGRPSGVPDRFSMSKSGNTATLTISSLQAEDEADYFCGSSDRTQYTGVFGSGTRLTVLG
notes: scAb
The Kd is the equilibrium constant for the complex coming apart. With B2, the binding result in the test with tau fragment 369-390 [3] is listed as “binds”. Moreover, in the test with tau fragment 369-391 [4], the binding result is “binds”. This molecule showed a Kd in [5] of 0.4 nM. In test [6], this molecule had a LoD chemiluminescence detection of 0.12 ng/mL and a LoD colourimetric detection of 2 ng/mL. Besides, in the test with dGAE (tau 297-391) [7], the “EC50 (read off the curve)” value was approximately 0.9 µg/mL.

B3: S1F4 scAb (scFv, not shown: small tags and cut ends)
scFv: B2 scFv with T30S, G96V, V121L, V123I, L144V, M150V, I186V, M203N
notes: scAb
As for B3, the results for the “EC50 (read off the curve)” value (with dGAE (tau 297-391) [1]; in [9]; with tau fragment 369-390 [2]) were approximately 0.3 µg/mL, approximately 0.05 µg/mL and approximately 2 µg/mL, respectively. Besides, the binding result with tau fragment 369-391 [8] was “binds”.

B4: CB7 mAb (antibody, mouse IgG2a, V domains shown)
VH: QVQLQESGPSLVKPSQTLSLTCTVSGFSLTNYRVGWVRQAPGKALEWVSNIRSGGTTWYNPALKSRLSITADTSKSQVSLSLSSVTTEDTAVYYCARDSSGDLYAYDYWGPGLLVTVSS
VL: QAVLTQPSSVSRSLGQSVSMTCSGSSSNVGYGNYMAWFQQVPGSAPKLLIYGATSRASGVPDRFSGSRSGNTATLTISSLQAEDEADYYCASYDSTSGGVFGSGTRLTVLG
notes: sheep-mouse IgG2a chimeric mAb; also called CB7 antibody
As a reminder, the koff is the rate constant with which the complex falls apart. Lower therefore signals slow dissociation. A word on the kon: it is the rate constant with which the complex forms. A low value points to slower complex formation. In turn, B4 gave a Kd in test [10] of 3.7 nM. This molecule also yielded a koff in [10] of 0.00945 s⁻¹. The molecule further had a kon in test [10] of 2.57e+06 M⁻¹ s⁻¹. Also, the binding result is “no binding” with mouse tau, “no binding” in [11], “binds” in test [12] and “no binding (tested: 800 nM)” in the test with aggregated dGAE [13].

B5: CC7 mAb (antibody, mouse IgG2a, V domains shown)
VH: QVQLQESGPSLVKPSQTLSLTCTVSGFSLTSNAVIWVRQAPGKAPEWVALIDVDGDAAYDPALKSRLSITRDTSKSQVSLSLRSVTTEDTAVYYCARDYGSWGYVSDIDYWGPGLLVTVSS
VL: RVVRTQPSSVSGSLGQRVSITCSGSYITGSSVGWFQQVPGSGLKTVIYDNNDRPSGVPDRFSGSKSGDTATLTISSLQAEDEADYYCASYDTSNIGLFGSGTRLTVLG
notes: sheep-mouse IgG2a chimeric mAb; also called CC7 antibody
For B5, in [10], the Kd worked out at 6.9 nM, the koff was found to be 0.0316 s⁻¹ and the association rate constant (kon) was 4.58e+06 M⁻¹ s⁻¹. Moreover, in the test with mouse tau, the binding result was “no binding”. For the same molecule, the binding result in test [11] is given as “no binding”. For the same molecule, the binding result in test [12] is “binds”.

B6: S1D12 mAb (antibody, mouse IgG2a, V domains shown)
VH: QVQLQESGPSLVKPSQTLSLTCTVSGFSLNNNAVGWVRQAPGKVPESLVGCSSDGTCYYNSALKSRLDITRDTSKNQISLSLSSVTTDDAAVYYCTRGHYSIYGYDYLGTIDYWGPGLLVTVSS
VL: QAVLTQPSSVSGSLGQRVSITCSGSSSNVGGGNSVGWYQHLPGSGLKTIIYDTNSRPSGVPDRFSGSRSGNTATLTINSLQAEDEGDYYCVTGDSTTHDDLVGSGTRLTVLG
notes: sheep-mouse IgG2a chimeric mAb; also called S1D12 antibody; SD12
Regarding B6, in test [10], the Kd is 0.101 nM, the dissociation rate constant (koff) was determined as 4.09e-05 s⁻¹ and the kon was 406000 M⁻¹ s⁻¹. Moreover, the “EC50 (read off the curve)” value in the test with aggregated dGAE [14] is approximately 30 nM. Also, the binding result in [12] is recorded as “binds”.

B7: CA4 mAb (antibody, mouse IgG2a, V domains shown)
VH: QVQLQESGPSLVKPSQTLSLTCTVSGFSLTSYSVYWVRQAPGQALEWISIMYASGRVDYNPALKSRLSITRDTSKSQFSLSLSSVTTEDTAVYYCTRGIENWGPGLLVTVSS
VL: DIQVTQSPSSLSASLTERVSITCRTSQSVNNYLSWYQQKPGQAPKLLIYYATRLYTDVPSRFSGSGSGTDYTLTITSLEADDTATYYCLQYDSTPLAFGGGTNVEIKG
notes: sheep-mouse IgG2a chimeric mAb; also called CA4 antibody
B7: in [10], the Kd was determined as 1.3 nM, the koff is 0.00128 s⁻¹ and the association rate constant (kon) came out at 1.02e+06 M⁻¹ s⁻¹. The binding result with aggregated dGAE [13] is given as “no binding (tested: 800 nM)”.

B8: 3aA6 scAb (scFv, not shown: small tags and cut ends)
scFv: QVRLQESGSSLVKPSQTLSLVCTVSGFPLTSNAVGWVRQAPGKAPEWLGLIDIDGDTAYNPALESRLSITRDTSKSQVSLSLSSVAIEDTAVYYCARHYDKWGYADSIDYWGPGLLVTVSSEGKSSGASGESKVDDQALLTQPSSVFGSLGQRVSITCSGSSSNVGYGDYVGWYQQVPGSAPKLLIYDATTRASGVPDRFSGSRSGNTATLTISSLQAEDEADYYCASYQNERSGVFGSGTRLTVLG
notes: scAb
For the molecule B8, in test [15], the dissociation constant Kd worked out at 989 nM, the koff was 0.0188 s⁻¹ and the kon was 19000 M⁻¹ s⁻¹. In the test with tau peptide 145-157, the binding result is “binds”.

B9: 3aD6 scAb (scFv, not shown: small tags and cut ends)
scFv: QVQLQESGPSLVKPSQTLSLTCTVSGFSLTSNAVIWVRQAPGKAPEWVALIDVDGDAAYDPALKSRLSITRDTSKSQVSLSLRSVTTEDTAVYYCARDYGSWGYVSDIDYWGPGLLVTVSSEGKSSGASGESKVDDQAVLTQPSSVSGSLGQRVSITCSGSDIGGADVGWFQQVPGSGLRTLIYDNDNRPSGVPDRFSGSKSGNTATLTISSLQPEDEADYFCGTYSGANYGIFGSGTRLTVLG
notes: scAb
As to B9, the binding result with tau peptide 145-157 was “binds”.
